test system: Escherichia coli TOP10; test: shrunken log2 fold change of peptide-encoding DNA abundance (4.5 h post-induction vs induction); higher = less antimicrobial activity (less host growth inhibition); details: time post-induction: 4.5 h; library: site-saturation at positions 5, 18, 19, 20
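Also: peptides expressed intracellularly from a pBAD plasmid library in pooled LB shake-flask culture, induced with 0.3% L-arabinose, DNA abundance read by NGS, three biological replicates, DESeq2 with apeglm shrinkage.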

Sequence | shrunken log2 fold change
RRIRHRPPRLPRPRPRPKMNPRP | -0.487
RRIRLRPPRLPRPRPRPRVAPRP | 0.272
RRIRGRPPRLPRPRPRPEFIPRP | 0.131
RRIRHRPPRLPRPRPRPHRVPRP | 0.0179
RRIRTRPPRLPRPRPRPNYSPRP | -0.382
RRIRSRPPRLPRPRPRPIYQPRP | -0.158
RRIRARPPRLPRPRPRPMMFPRP | 0.166
RRIRGRPPRLPRPRPRPDTLPRP | 0.169
RRIRHRPPRLPRPRPRPHNQPRP | -0.521
RRIRKRPPRLPRPRPRPKMNPRP | 0.2
RRIRPRPPRLPRPRPRPEQCPRP | -0.0149
RRIRNRPPRLPRPRPRPKQLPRP | 0.252
RRIRIRPPRLPRPRPRPIEYPRP | -0.0602
RRIRLRPPRLPRPRPRPTDKPRP | -0.251
RRIRHRPPRLPRPRPRPPQIPRP | -0.0667
RRIRPRPPRLPRPRPRPRLGPRP | 0.586
RRIRLRPPRLPRPRPRPIAPPRP | 0.372
RRIRGRPPRLPRPRPRPILKPRP | 0.316
RRIRIRPPRLPRPRPRPAPEPRP | 1.9
RRIRHRPPRLPRPRPRPTGMPRP | 0.156
RRIRTRPPRLPRPRPRPEDTPRP | -0.045
RRIRGRPPRLPRPRPRPAYLPRP | 0.235
RRIRRRPPRLPRPRPRPMTAPRP | 0.0357
RRIRWRPPRLPRPRPRPQHAPRP | -0.0577
RRIRERPPRLPRPRPRPSKEPRP | -0.0565

Sequence | shrunken log2 fold change
RRIRIRPPRLPRPRPRPDGPPRP | -0.0369
RRIRRRPPRLPRPRPRPFAHPRP | -0.00279
RRIRCRPPRLPRPRPRPGIYPRP | -0.0438
RRIRCRPPRLPRPRPRPWGRPRP | -0.118
RRIRERPPRLPRPRPRPCGEPRP | -0.116
RRIRARPPRLPRPRPRPLADPRP | 0.42
RRIRQRPPRLPRPRPRPAHFPRP | 0.464
RRIRRRPPRLPRPRPRPMCQPRP | 0.254
RRIRLRPPRLPRPRPRPKDEPRP | 0.114
RRIRGRPPRLPRPRPRPRIIPRP | 0.0317
RRIRPRPPRLPRPRPRPRTFPRP | 0.23
RRIRCRPPRLPRPRPRPFWVPRP | 0.0496
RRIRPRPPRLPRPRPRPWSQPRP | 0.0452
RRIRLRPPRLPRPRPRPCSIPRP | -0.678
RRIRLRPPRLPRPRPRPFQHPRP | -0.175
RRIRTRPPRLPRPRPRPIKAPRP | -0.143
RRIRLRPPRLPRPRPRPWRSPRP | -0.0908
RRIRVRPPRLPRPRPRPTNMPRP | -0.472
RRIRKRPPRLPRPRPRPAMSPRP | -0.146
RRIRVRPPRLPRPRPRPADQPRP | 0.0278
RRIRARPPRLPRPRPRPTFCPRP | 0.386
RRIRCRPPRLPRPRPRPCGYPRP | -0.144
RRIRERPPRLPRPRPRPFVIPRP | -0.478
RRIRGRPPRLPRPRPRPNRGPRP | -0.0157
RRIRIRPPRLPRPRPRPYFCPRP | -1.26

Sequence | shrunken log2 fold change
RRIRLRPPRLPRPRPRPLTEPRP | 0.098
RRIRNRPPRLPRPRPRPSEVPRP | -0.0684
RRIRDRPPRLPRPRPRPSQPPRP | -0.0206
RRIRYRPPRLPRPRPRPNLRPRP | -0.341
RRIRQRPPRLPRPRPRPIEMPRP | -0.0847
RRIRRRPPRLPRPRPRPHFDPRP | 0.216
RRIRYRPPRLPRPRPRPTDTPRP | -0.392
RRIRGRPPRLPRPRPRPCGFPRP | 1.25
RRIRYRPPRLPRPRPRPMWDPRP | 0.0162
RRIRWRPPRLPRPRPRPPYWPRP | 0.204
RRIRPRPPRLPRPRPRPHIWPRP | -0.3
RRIRHRPPRLPRPRPRPLMTPRP | -0.192
RRIRMRPPRLPRPRPRPNAEPRP | -0.0356
RRIRLRPPRLPRPRPRPHALPRP | -0.396
RRIRCRPPRLPRPRPRPVPSPRP | -0.119
RRIRQRPPRLPRPRPRPHYFPRP | -0.239
RRIRCRPPRLPRPRPRPPTSPRP | 0.428
RRIRFRPPRLPRPRPRPFHDPRP | -0.149
RRIRWRPPRLPRPRPRPRTGPRP | 0.235
RRIRARPPRLPRPRPRPMHEPRP | 0.671
RRIRRRPPRLPRPRPRPMPGPRP | 0.243
RRIRRRPPRLPRPRPRPPTEPRP | 0.315
RRIRVRPPRLPRPRPRPPIHPRP | 0.042
RRIRFRPPRLPRPRPRPPGTPRP | 0.316
RRIRIRPPRLPRPRPRPVVRPRP | 0.11

Sequence | shrunken log2 fold change
RRIRDRPPRLPRPRPRPMMSPRP | -0.0107
RRIRIRPPRLPRPRPRPQILPRP | 0.0356
RRIRIRPPRLPRPRPRPPPGPRP | 0.685
RRIRHRPPRLPRPRPRPNENPRP | -0.579
RRIRPRPPRLPRPRPRPTPYPRP | -0.0196
RRIRIRPPRLPRPRPRPMTWPRP | -0.0244
RRIRTRPPRLPRPRPRPSNCPRP | -0.414
RRIRARPPRLPRPRPRPKMKPRP | 0.131
RRIRYRPPRLPRPRPRPVDVPRP | -0.359
RRIRHRPPRLPRPRPRPDSGPRP | -0.0385
RRIRVRPPRLPRPRPRPFCAPRP | 0.00539
RRIRQRPPRLPRPRPRPNRKPRP | -0.141
RRIRQRPPRLPRPRPRPEAHPRP | 0.0944
RRIRIRPPRLPRPRPRPDMIPRP | -0.0965
RRIRHRPPRLPRPRPRPGSGPRP | 0.0563
RRIRTRPPRLPRPRPRPTDGPRP | -0.0714
RRIRIRPPRLPRPRPRPMIMPRP | -0.615
RRIRYRPPRLPRPRPRPNAYPRP | -0.212
RRIRFRPPRLPRPRPRPTTAPRP | 0.297
RRIRDRPPRLPRPRPRPVYIPRP | -0.497
RRIRTRPPRLPRPRPRPQCYPRP | -0.256
RRIRCRPPRLPRPRPRPIYHPRP | -0.905
RRIRQRPPRLPRPRPRPRKKPRP | -0.0181
RRIRIRPPRLPRPRPRPGDTPRP | -0.372
RRIRRRPPRLPRPRPRPKREPRP | 0.304

Sequence | shrunken log2 fold change
RRIRDRPPRLPRPRPRPDTFPRP | -0.0268
RRIRWRPPRLPRPRPRPYYLPRP | -0.843
RRIRPRPPRLPRPRPRPMCYPRP | -0.221
RRIRVRPPRLPRPRPRPRGVPRP | 0.278
RRIRWRPPRLPRPRPRPREQPRP | 0.349
RRIRSRPPRLPRPRPRPGIFPRP | 0.201
RRIRGRPPRLPRPRPRPFAMPRP | 0.68
RRIRVRPPRLPRPRPRPLQKPRP | 0.0697
RRIRCRPPRLPRPRPRPTPDPRP | 0.857
RRIRPRPPRLPRPRPRPDYEPRP | -0.136
RRIRPRPPRLPRPRPRPGMDPRP | -0.00631
RRIRIRPPRLPRPRPRPCLLPRP | -0.495
RRIRRRPPRLPRPRPRPIAYPRP | 0.0129
RRIRQRPPRLPRPRPRPDVQPRP | -0.0191
RRIRNRPPRLPRPRPRPQYDPRP | -0.0449
RRIRTRPPRLPRPRPRPTTWPRP | -0.0444
RRIRWRPPRLPRPRPRPGRHPRP | 0.458
RRIRHRPPRLPRPRPRPGNAPRP | 0.137
RRIRYRPPRLPRPRPRPGVAPRP | 0.182
RRIRNRPPRLPRPRPRPSMHPRP | -0.805
RRIRARPPRLPRPRPRPHQAPRP | -0.0279
RRIRLRPPRLPRPRPRPFVFPRP | -0.337
RRIRCRPPRLPRPRPRPRQQPRP | -0.245
RRIRWRPPRLPRPRPRPELVPRP | 0.605
RRIRGRPPRLPRPRPRPMNWPRP | 0.179

Sequence | shrunken log2 fold change
RRIRWRPPRLPRPRPRPPRVPRP | 0.626
RRIRNRPPRLPRPRPRPIFDPRP | -0.201
RRIRIRPPRLPRPRPRPYALPRP | -0.0961
RRIRQRPPRLPRPRPRPHSFPRP | -0.00144
RRIRERPPRLPRPRPRPLEAPRP | 0.105
RRIRWRPPRLPRPRPRPTQNPRP | 0.637
RRIRMRPPRLPRPRPRPPSSPRP | -0.0366
RRIRLRPPRLPRPRPRPRYHPRP | -0.274
RRIRDRPPRLPRPRPRPYCGPRP | 0.0637
RRIRQRPPRLPRPRPRPIACPRP | -0.238
RRIRARPPRLPRPRPRPDIFPRP | 0.148
RRIRWRPPRLPRPRPRPQWMPRP | 0.0674
RRIRQRPPRLPRPRPRPVMEPRP | -0.028
RRIRCRPPRLPRPRPRPAAGPRP | 0.378
RRIRRRPPRLPRPRPRPSETPRP | 0.493
RRIRWRPPRLPRPRPRPIRYPRP | -0.242
RRIRMRPPRLPRPRPRPHHNPRP | -0.533
RRIRLRPPRLPRPRPRPPYFPRP | -0.247
RRIRPRPPRLPRPRPRPFGDPRP | -0.0184
RRIRHRPPRLPRPRPRPQSDPRP | 0.0136
RRIRGRPPRLPRPRPRPEAPPRP | 1.73
RRIRMRPPRLPRPRPRPNPHPRP | 0.269
RRIRWRPPRLPRPRPRPEPGPRP | 0.43
RRIRKRPPRLPRPRPRPYDFPRP | 0.176
RRIRNRPPRLPRPRPRPRSGPRP | -0.0312
